Reference: paper PMC2980497

Molecular target: MutL (Escherichia coli) (UniProt P23367)
Experiment: single-molecule flow-extension
Settings: 25 mM NaCl, 0.5 mM ATP, 2.5 pN; S0.5, multiple MutL bind; smFRET: 20 mM Tris-HCl pH 7.5, 25-150 mM NaCl (25 mM standard), 0.1 mM EDTA, 3 mM MgCl2, 0.5 mM ATP, 1 mM DTT, oxygen scavenger with 2 mM trolox …

Chain of UniProt P23367 (P23367 whole entry): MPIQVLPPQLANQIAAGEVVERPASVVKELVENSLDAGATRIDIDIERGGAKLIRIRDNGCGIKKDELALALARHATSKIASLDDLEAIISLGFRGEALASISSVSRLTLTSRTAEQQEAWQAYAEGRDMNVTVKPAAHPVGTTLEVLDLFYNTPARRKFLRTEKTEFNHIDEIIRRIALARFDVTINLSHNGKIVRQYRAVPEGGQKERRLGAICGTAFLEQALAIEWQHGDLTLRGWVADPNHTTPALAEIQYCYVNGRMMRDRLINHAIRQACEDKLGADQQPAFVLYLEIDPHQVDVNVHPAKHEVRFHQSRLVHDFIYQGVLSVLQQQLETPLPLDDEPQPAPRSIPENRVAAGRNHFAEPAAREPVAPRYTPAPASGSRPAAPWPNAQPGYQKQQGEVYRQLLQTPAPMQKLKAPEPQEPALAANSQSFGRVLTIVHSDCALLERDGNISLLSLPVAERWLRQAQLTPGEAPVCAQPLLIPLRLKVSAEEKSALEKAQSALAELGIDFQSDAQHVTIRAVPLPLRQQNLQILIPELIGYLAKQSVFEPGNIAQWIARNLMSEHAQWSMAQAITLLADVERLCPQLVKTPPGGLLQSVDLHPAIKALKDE

Substance: 5.3 kb ssDNA
- K half: 24 nM
